From article PMC6101608 (Nucleic Acids Research, 2018) come the findings set out here.

For data set [1], the system named is HpoR (Mycobacterium smegmatis mc2 155). In words: EMSA. A general note: A gel shift assay detects complexes by their altered migration in electrophoresis.
Data set [2] has as its system LtmA (Mycobacterium smegmatis mc2 155). In words: EMSA.
The target of another data set is T1, HpoR (M. smegmatis mc2 155, UniProt A0R4J9 1-199).
T1 sequence: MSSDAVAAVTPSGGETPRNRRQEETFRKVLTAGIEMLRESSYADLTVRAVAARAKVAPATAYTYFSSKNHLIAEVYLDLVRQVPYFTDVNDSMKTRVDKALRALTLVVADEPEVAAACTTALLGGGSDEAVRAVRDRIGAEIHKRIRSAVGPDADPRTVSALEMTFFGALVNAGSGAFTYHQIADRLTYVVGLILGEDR
In words: SPR.

As a reminder, the Kd is a measure of binding affinity in units of concentration.

With Ms5860p, the Kd in data set [1] was 290 nM; in data set [2], 620 nM.

B1: LtmA (natural protein)
chain: MSDPAMESTRRRLSARQADTVERLGRAAVELISREGYAGLTVRRVAAEAGVGSATAYTYFSSKEHLVAEVFWRRLSAAPPAVHESPDPATRVVEVLQHIASLVADEPAFAGAVTTALLGKDPDVDALRQRIGADIRQRLVAALGPDVRIDVIEALELLYTGTMVWAGMGYDSYEQVVRRLEKSARLVLS
With B1, binding in the data set with HpoR was put at a Kd of 7500 ± 800 nM.
